Publication PMC9650048

Experiments:
[1] = molecular target: histone deacetylase 1 (HDAC1), Xenopus (Xenopus laevis (endogenous in egg nucleoplasmic extract)); test: immunodepletion (co-depletion), Western blot of the depleted extract; antibody on Protein-A Sepharose incubated with NPE at 4 °C for 1 h over two rounds; depleted extract blotted
[2] = molecular target: histone deacetylase 1 (HDAC1), Xenopus (Xenopus laevis (endogenous in egg nucleoplasmic extract)); test: co-IP; sequential IPs from NPE diluted 5x in ELB (10 mM Hepes-KOH pH 7.7, 2.5 mM MgCl2, 50 mM KCl, 250 mM sucrose), serum or antibody on Protein-A Sepharose, 4 °C 120 min, three washes; first round HDAC1 or HDAC2 IP, second round the converse antibody on the supernatant; supernatant and pellet by Western blot

Substance: histone deacetylase 2 (HDAC2), Xenopus (enzyme)
- percent of HDAC2 codepleted with HDAC1 [1]: 50%
- percent of HDAC2 removed by the HDAC1 IP [2]: 50%
